B1: Mip1-myc (wild type) [S. pombe] / FLAG-tagged Tor2 kinase [S. pombe] (parent complex)
chain 1: MNDRISEVSGSSRARRSVLSYGTTETGSDRYTENSNIATENGVDTASSMIDGIQSGFPQPRHGFEEEYNNAEYINMLEQVFYMYYTDKRHRGVISKKNAEPTETIHDWRMRERLKTVSAALLVCLNIGVDPPDVIKPNPAAKYECWIDPFSLPASKALEAIGKNLQQQYETLSMRTRYRHYLDPAIEEVKKLCIGQRRNAKEERILFHYNGHGVPMPTASGEIWVFNKNYTQYIPVSLYDLQSWLGAPCIYVYDCSAAGNIIVNFNRFAEQRDKEALRIAKQNPNVLAMPSHTSCIQLAACGPKETLPMNPDLPADLFTSCLTSPIEISVRWYVLQNPFPNKLNLNMLLKIPGRLQDRRTPLGELNWIFTAITDTIAWNVFPKHLFRRLFRQDLMVAALFRNFLLAERIMLVHSCHPQSSPELPPTHDHPMWNSWDLAIDNCLSQLPDMLDAESKGIAYEYKHSTFFSEQLTAFEVWLSQGLISRKPPDQLPLVLQVLLSQVHRLRALILLSKFLDLGVWAVDLALSIGIFPYVLKLLQSPAIELKPVLVFIWARILAVDDSCQADLLKDNGYGYFVQILNPNSSIFPSSNISEHRAMCAFILSVFCRGFPQGQLACLNPQVLSHCLSHLNSPDSLLRQWACLCISQLWENYSEAKWSGTRDNAHVKLAEIIVDSVPEVRASVLTAFTTFLGFPEKTEEVVAVETYIAIAALAALSDASPLVRHELVIFLSHFVVNYKKQLMVVAYESSLADILEKKNHNSISASTIYETVWQAVLVLAADPSIEISLAAEAIINYVYQSMLNSELRESFLAFLLQHLPALHKASLSKDTDTNSVTSDPKPHPFVPSVSENKILNRSFSLTRSLKGLALSLAGSDRASELLSLNGENKPAESNLNHLTSAKVPGPPAFNELEYQSELDMPLTSYLFDWSRKYFTEPQMRPNEDDEPGSICYNQRLWRRNRNEKLIYRTRPLAEYSTNGRWNQQLMTFNNTIAPRKLMFHQFEDQLITLGDKDIIQVWDWRRNRCLNSFKTSASATTNVTDMQLLNEDDVALLMTGSSDGTIKLYRDYENEKVELVTSWNSLSDLVFGDRNASLLMSWQQNCGHLLVAGDVRVIRIWDASKEICYANLPVRSSNSITSLTSDLVGCNIIVAGFSDGVLRVYDKRLPARDSLTDVWKEHSSEIVNVEMQSSGMRELISASSDGEVKLWDIRMNHSLQTFSTDNSGLTSLTVHSHAPVYATGSSNQSIKIWDTLGQNINTFRENPRFLNQPKPSSLMCLKFHPHHLLLACGDNTDSRVNLYSCTKNEIHTDSPNEF
chain 2: MKEFPGLKSRNEEIRNKAANDLYEYVIAYSRELSGEALVQFNNDVNKYVYTLIHSTDPLDRLAGVTAINRLIDYEGEDTTRITRFANYLRIILPGTDQKATVLAAKALGRLAVPGGALTSEFVNFEVKRALEWLQGERNENRRYAAVLILKELAKNTSTLIYAHIDSIFELLWHGLRDPKVTIRIASADALSEFLKIVRQRDSSIRLQWYTSILNEAQRGVAQGSSDYIHGSLLVYRQLFLKAGMFMHERYREVSDIILQFRDHKDLLIRKTVTELIATLAAYNPDEFVSNYLHVCMLHLLNLLKKENVKMLAFATIGKVAVAITNSIIPYLDPICDSIKESLKIHIRNKSASDAAIFQCISLLSIALGQAFSNYAYDLFDLIFASGLSEASYRALSDLAHNIPPLLPVIQERLLDMLSKILSGRPFIPPGCPPQYVARSLKSSKSASLKTGFFPNDVYILALKVLGNFDFSGYILNEFVKDCVVVYLENNDPEVRKTASITCSQLFARDPILSQTSDHAIQVVAEVLEKLLTVGICDTVPDIRLTVLNSLDSRFNKHLAQADKIRLLFIAINDENFAVRESALRIIGRLNVYNPAYVMPYLRKIMLKTLTILDYSTIIRTKEENAKLLCLLIAAAPRLIESHVEPILQILLPKAKDSSSIVAASIVNSLGEICQISGEVIVPFIKDLMPLIIEALQDQSSPIRRAAALKALGNLSSSTGYVIDPYIEFPSLLDILIGITKTEQDITIRRETIKLIGTLGALDPNRHRVLEKGTEKVVPEQKNIPPDISLLMSGIGPSSDEYYPTVVITALMSILKDPSLTIHHTAVIQAVMYIFKTMGLRCAPFLSQIIPEFIAVMRTCPTNILEFYFQQLSILVLIVRQHIRSFLPDLFKLIKDFWNPHSNLQFTILSLIESLARAMQGEFKPYLPSLLVMMLQIFDSDVSVDSVSTKKVLHAFIVFGDTLADYFHMLLDPILRLYERNDVSIGIKESIMITIGRLSMVINLSEYASRIIHPVMRMLSCNNASLIRVSMDTVCALIYQLNVDFAIFIPMIDKCLKMNGVTHETYSILVEQFLQEQPLPIKLNPYEKYDKPKLDVVASAADITSKKLPVNQEILRNAWEASQRSTKDDWQEWIRRLGVALLRESPSHALRACAALAAAYQPLARDLFNASFVSCWSELYDHFQEELVKSIEIALTSPHISPEIIQILLNLAEFMEHDDKPLPIDIRTLGAYAAKCHAFAKALHYKELEFIEEELVTKPSVDTIEALISINNQLQQPDAAIGILKHAQQHDKMNLKETWYEKLQRWEDALSAYEKREAAGAGNFEITMGKLRCLHALGEWDRLSQLAQENWIHAGHDARRYIAPLSVAAAWGLGQWEQMDEYISVMKSESPDKAFFNAIVALHRSQFEEAASYITRARDLLDTELTALVGESYNRAYSVAVRVQMLSELEEIITYKKAEDKPEVREMIKKTWVRRLKGCQRNVDVWQRMLRIRSLVISPRDNMEMWIKFANLCRKSGRISLAKKSLNLLLEDDENLDNSLVLKKTHPSIVYANLKFLWAVDDKRKALNSMQEFTSQLISDINVDPALFVQSTSVNTQKSQEEIQYYFHLLARCYHKQGQWQQEIENNWSEGSFDGVLQSYMYATQFDSKWYKAWHSWALANFEAVKFLEQSEEQIPSAAYEQYIIPAVKGFFKSIALSKGNLQDTLRLLNLWFKFGNNSNVINTLNVGISTVNIDIWLDVIPQLIARIHASSLSVRKSVHQLLSDVGRAHPQALVYPLTVAAKSQSSARQNAALAIMDSLKTHSPRLVEQARLVSHELIRAAILWHEQWHEGLEEASRLYFGDHNIEGMFAVLRPLHEMLERGPETLREISFQQAFGRDLVEARDCCIRFEQTGDISDLNQAWDLYYQVFKKIRKQLPQLTTLDLQYVSPKLLHVHDLELAVPGTYVSGKPVIRIVKFYPTFNVITSKQRPRRLSIKGSDGKDYQYVLKGHEDIRQDERVMQLFGLCNNLLLADPETFKRLLSIQRYPVIPLSPDSGLLGWVLDSDTLHVLIRDYRESRKILLNIEHRLIIQMAPDYDRLTLLQKVEVFEYALLSTTGQDLYRVLWLKSRSSEAWLNRRTNYSRTLAVMSMVGYILGLGDRHPSNLMLDRYTGNIIHIDFGDCFEVAMHREKFPEKIPFRLTRMLVNAMEVSGIEGTFRITCEHVMRVLRTNKESVMAVLEAFVYDPLINWRLAPAYSPSIDEKQSNEPNTLLGETIDGLHRKRLNEEGITLEERQKPEILNQRAITVLNRVSNKLTGRDFKPQQQLDVPSQVEKLILQATSIENLCLCYIGWCSFW

Variants of: B1
Experiment: co-immunoprecipitation (anti-FLAG affinity beads) with quantified immunoblot; n=3 independent experiments; parent: 1; read off a plot

| Variant | ratio to parent |
| --- | --- |
| chain 1 R504A | ~0.53 |
| chain 1 Y533A | ~0.9 |
| chain 1 R358A | ~0.42 |
